Laboratory results reported in the supplement of paper PMC11246515.
± gives the standard deviation of the averaged measurements.

Assay: total protein half-life in vivo (active degradation + dilution); higher = more stable protein
[1] = E. coli NCM3722 delta-clpP delta-lon delta-hslV, growth: N-lim chemostat, doubling time 6 h
[2] = E. coli NCM3722 delta-clpP, growth: N-lim chemostat, doubling time 6 h
[3] = E. coli NCM3722 delta-lon, growth: N-lim chemostat, doubling time 6 h
[4] = wild type E. coli NCM3722, growth: C-lim chemostat, doubling time 6 h
[5] = E. coli NCM3722 delta-hslV, growth: N-lim chemostat, doubling time 6 h
[6] = E. coli NCM3722 delta-smpB, growth: N-lim chemostat, doubling time 6 h
[7] = wild type E. coli NCM3722, growth: C-lim chemostat, doubling time 3 h
[8] = wild type E. coli NCM3722, growth: C-lim chemostat, doubling time 12 h
[9] = wild type E. coli NCM3722, growth: N-lim chemostat, doubling time 6 h
[10] = wild type E. coli NCM3722, growth: N-lim chemostat, doubling time 12 h
[11] = wild type E. coli NCM3722, growth: P-lim chemostat, doubling time 6 h
[12] = wild type E. coli NCM3722, growth: P-lim chemostat, doubling time 12 h

| Sequence | total protein half-life in vivo [1] | total protein half-life in vivo [2] | total protein half-life in vivo [3] | total protein half-life in vivo [4] | total protein half-life in vivo [5] | total protein half-life in vivo [6] | total protein half-life in vivo [7] | total protein half-life in vivo [8] | total protein half-life in vivo [9] | total protein half-life in vivo [10] | total protein half-life in vivo [11] | total protein half-life in vivo [12] |
| --- | --- | --- | --- | --- | --- | --- | --- | --- | --- | --- | --- | --- |
| MKFDKPAGENPIDQLKVVGRPHDRIDGPLKTTGTARYAYEWHEEAPNAAYGYIVGSAIAKGRLTALDTDAAQKAPGVLAVITASNAGALGKGDKNTARLLGGPTIEHYHQAIALVVAETFEQARAAASLVQAHYRRNKGAYSLADEKQAVNQPPEDTPDKNVGDFDGAFTSAAVKIDATYTTPDQSHMAMEPHASMAVWDGNKLTLWTSNQMIDWCRTDLAKTLKVPVENVRIISPYIGGGFGGKLFLRSDALLAALAARAVKRPVKVMLPRPSIPNNTTHRPATLQHLRIGADQSGKITAISHESWSGNLPGGTPETAVQQSELLYAGANRHTGLRLATLDLPEGNAMRAPGEAPGLMALEIAIDELAEKAGIDPVEFRILNDTQVDPADPTRCFSRRQLIECLRTGADKFGWKQRNATPGQVRDGEWLVGHGVAAGFRNNLLEKSGARVHLEQNGTVTVETDMTDIGTGSYTILAQTAAEMLGVPLEQVAVHLGDSSFPVSAGSGGQWGANTSTSGVYAACMKLREMIASAVGFDPEQSQFADGKITNGTRSATLHEATAGGRLTAEESIEFGTLSKEYQQSTFAGHFVEVGVHSATGEVRVRRMLAVCAAGRILNPKTARSQVIGAMTMGMGAALMEELAVDDRLGYFVNHDMAGYEVPVHADIPKQEVIFLDDTDPISSPMKAKGVGELGLCGVSAAIANAVYNATGIRVRDYPITLDKLLDKLPDVV | 6.02 ± 1.7 h | 1.06 h | 4.29 ± 0.36 h | 6.1 h |  |  |  |  |  |  |  |  |
| MKFKTNKLSLNLVLASSLLAASIPAFAVTGDTDQPIHIESDQQSLDMQGNVVTFTGNVIVTQGTIKINADKVVVTRPGGEQGKEVIDGYGKPATFYQMQDNGKPVEGHASQMHYELAKDFVVLTGNAYLQQVDSNIKGDKITYLVKEQKMQAFSDKGKRVTTVLVPSQLQDKNNKGQTPAQKKGN [P0ADV1] | 5.44 ± 0.34 h |  | 6.48 ± 1.1 h | 5.6321 ± 0.0032 h | 6.38 ± 0.74 h | 6.18 ± 0.62 h | 3.06 ± 0.23 h | 10.5 ± 0.36 h | 5.73 ± 0.082 h | 9.99 ± 1.6 h | 5.79 ± 0.07 h | 11.8 ± 0.99 h |
| MKFVKYFLILAVCCILLGAGSIYGLYRYIEPQLPDVATLKDVRLQIPMQIYSADGELIAQYGEKRRIPVTLDQIPPEMVKAFIATEDSRFYEHHGVDPVGIFRAASVALFSGHASQGASTITQQLARNFFLSPERTLMRKIKEVFLAIRIEQLLTKDEILELYLNKIYLGYRAYGVGAAAQVYFGKTVDQLTLNEMAVIAGLPKAPSTFNPLYSMDRAVARRNVVLSRMLDEGYITQQQFDQTRTEAINANYHAPEIAFSAPYLSEMVRQEMYNRYGESAYEDGYRIYTTITRKVQQAAQQAVRNNVLDYDMRHGYRGPANVLWKVGESAWDNNKITDTLKALPTYGPLLPAAVTSANPQQATAMLADGSTVALSMEGVRWARPYRSDTQQGPTPRKVTDVLQTGQQIWVRQVGDAWWLAQVPEVNSALVSINPQNGAVMALVGGFDFNQSKFNRATQALRQVGSNIKPFLYTAAMDKGLTLASMLNDVPISRWDASAGSDWQPKNSPPQYAGPIRLRQGLGQSKNVVMVRAMRAMGVDYAAEYLQRFGFPAQNIVHTESLALGSASFTPMQVARGYAVMANGGFLVDPWFISKIENDQGGVIFEAKPKVACPECDIPVIYGDTQKSNVLENNDVEDVAISREQQNVSVPMPQLEQANQALVAKTGAQEYAPHVINTPLAFLIKSALNTNIFGEPGWQGTGWRAGRDLQRRDIGGKTGTTNSSKDAWFSGYGPGVVTSVWIGFDDHRRNLGHTTASGAIKDQISGYEGGAKSAQPAWDAYMKAVLEGVPEQPLTPPPGIVTVNIDRSTGQLANGGNSREEYFIEGTQPTQQAVHEVGTTIIDNGEAQELF | 5.593 ± 0.05 h | 5.49 ± 0.056 h | 6.37 ± 1.3 h | 5.7 ± 0.38 h | 5.4453 ± 0.0032 h | 5.3 ± 0.31 h | 3.35 ± 0.36 h | 10.82 ± 0.022 h | 5.08 ± 0.37 h | 10.2 ± 0.59 h | 4.46 ± 0.3 h | 7.61 ± 0.27 h |
| MKFWRPGITGKLFLAIFATCIVLLISMHWAVRISFERGFIDYIKHGNEQRLQLLSDALGEQYAQHGNWRFLRNNDRFVFQILRSFEHDNSEDKPGPGMPPHGWRTQFWVVDQNNKVLVGPRAPIPPDGTRRPILVNGAEVGAVIASPVERLTRNTDINFDKQQRQTSWLIVALATLLAALATFLLARGLLAPVKRLVDGTHKLAAGDFTTRVTPTSEDELGKLAQDFNQLASTLEKNQQMRRDFMADISHELRTPLAVLRGELEAIQDGVRKFTPETVASLQAEVGTLTKLVDDLHQLSMSDEGALAYQKAPVDLIPLLEVAGGAFRERFASRGLKLQFSLPDSITVFGDRDRLMQLFNNLLENSLRYTDSGGSLQISAGQRDKTVRLTFADSAPGVSDDQLQKLFERFYRTEGSRNRASGGSGLGLAICLNIVEAHNGRIIAAHSPFGGVSITVELPLERDLQREV | 6.52 ± 0.079 h | 6.22 ± 0.26 h | 6.08 ± 0.73 h |  | 6.4 ± 0.69 h | 5.49 ± 0.43 h | 3.33 ± 0.098 h | 11.3 ± 2.3 h | 6.23 ± 0.92 h | 12.9 ± 0.13 h | 6.86 ± 0.52 h | 12.1 ± 1.4 h |
| MKGGKRVQTARPNRINGEIRAQEVRLTGLEGEQLGIVSLREALEKAEEAGVDLVEISPNAEPPVCRIMDYGKFLYEKSKSSKEQKKKQKVIQVKEIKFRPGTDEGDYQVKLRSLIRFLEEGDKAKITLRFRGREMAHQQIGMEVLNRVKDDLQELAVVESFPTKIEGRQMIMVLAPKKKQ [P0A707] | 5.98 ± 0.11 h | 5.66 ± 0.61 h | 6.492 ± 0.032 h | 5.555 ± 0.039 h | 5.02 ± 0.54 h | 5.12 ± 0.1 h | 3.35 ± 0.084 h | 10.5 ± 0.76 h | 4.69 ± 0.57 h | 10.9 ± 1.7 h | 4.89 ± 0.27 h | 10.4 ± 0.88 h |
